Experimental data as given in publication PMC11606445.

Target: PaNOMT9 (Phellodendron amurense)
Assay: crystal structure

Substance: PaNOMT9 (enzyme)
- stoichiometry N: 2
